Data published in the supplement of paper PMC11136658.

Tested on: peptide library, one residue held at a place counted from the Y acceptor
Test: relative phosphorylation of the sub-library (ratio to the mean residue at this position); higher = residue favoured
Summary of the method: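 Each value expresses phosphorylation relative to the mean randomized residue. Purified recombinant kinases acted for 90 min in 384-well plates on biotinylated Tyr-centred peptide library mixtures, with one residue fixed at one position from −5 to +5, in the presence of 50 μM ATP with γ-32P-ATP. Signals were read by phosphorimaging after capture on streptavidin membranes, then normalized per position to the sum of the 18 randomized residues (16 in the Ser/Thr-free library) and multiplied by that number.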

TYK2, construct: aa871-end, human, sequence (P29597 871-1187, looked up): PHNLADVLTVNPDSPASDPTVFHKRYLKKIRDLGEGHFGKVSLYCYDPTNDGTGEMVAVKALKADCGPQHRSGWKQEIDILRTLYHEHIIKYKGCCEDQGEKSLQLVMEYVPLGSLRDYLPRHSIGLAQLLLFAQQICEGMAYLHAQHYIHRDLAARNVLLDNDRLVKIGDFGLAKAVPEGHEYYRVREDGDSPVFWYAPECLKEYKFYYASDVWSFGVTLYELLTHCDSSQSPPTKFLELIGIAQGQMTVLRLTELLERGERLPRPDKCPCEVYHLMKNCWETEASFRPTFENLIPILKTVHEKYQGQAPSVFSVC

TYK2, construct: aa871-end, human (from UniProt P29597)
relative phosphorylation
Conditions	at +1	at +2	at +3	at +4	at +5	at -1	at -2	at -3	at -4	at -5
A fixed	1.02	0.925	0.773	0.912	0.996	1.11	0.912	0.961	1.1	1.01
D fixed	0.279	0.572	0.536	0.798	0.795	1.27	0.902	0.975	0.881	0.949
E fixed	0.484	0.712	0.473	0.923	0.803	0.995	0.977	0.946	1.27	0.869
F fixed	1.45	1.04	1.17	1.05	1.02	1.24	0.932	1.02	1.18	1.04
G fixed	0.642	0.869	0.853	1.05	1.1	1.1	1.14	1.04	1.24	1.21
H fixed	1.3	0.828	1.07	1.15	1	1.22	1.09	1.04	0.906	0.96
I fixed	1.79	0.873	1.69	0.909	0.957	1.05	1.06	0.9	1.1	0.983
K fixed	0.544	1.29	0.806	1.24	1.1	0.573	0.956	0.959	0.86	0.995
L fixed	1.58	0.927	1.27	0.899	1.02	1.05	1.07	1.01	1.04	1.08
M fixed	1.59	1.02	1.33	1.17	0.983	0.976	0.858	0.983	0.967	0.959
N fixed	0.565	1.22	0.988	0.981	0.979	0.98	1.2	1.2	0.925	1.09
P fixed	0.381	1.04	0.756	0.756	1.22	1.18	0.892	1.17	1.1	1.09
Q fixed	0.973	1.07	0.967	1.15	0.908	0.854	1	0.981	1.02	1.03
R fixed	0.869	1.51	1.19	1.31	1.19	0.64	1.08	0.935	1.01	1.02
S fixed	0.761	1.06	0.951	0.957	1.03	0.98	0.986	0.995	0.743	0.91
T fixed	0.967	1.01	1.02	0.876	1.01	0.922	0.953	0.925	0.73	0.769
V fixed	1.42	0.823	1.16	0.857	0.882	0.949	0.983	0.963	0.786	0.875
W fixed	1.37	1.2	0.996	1.01	1	0.895	1.01	0.999	1.15	1.16
pThr fixed	0.332	0.465	0.257	0.549	0.579	0.969	0.712	0.903	0.863	0.929
pTyr fixed	1.02	0.822	0.517	0.919	0.694	1.51	0.98	1.1	1.22	1.07
